pKd: −log10 of the molar value.
Target: SA2-SCC1 complex (SA2 80-1060 in complex with SCC1 281-420) (UniProt Q8N3U4)
Assay: ITC

Chain of SA2-SCC1 complex (SA2 80-1060 in complex with SCC1 281-420) (Q8N3U4 80-1060, chain 1 of 2): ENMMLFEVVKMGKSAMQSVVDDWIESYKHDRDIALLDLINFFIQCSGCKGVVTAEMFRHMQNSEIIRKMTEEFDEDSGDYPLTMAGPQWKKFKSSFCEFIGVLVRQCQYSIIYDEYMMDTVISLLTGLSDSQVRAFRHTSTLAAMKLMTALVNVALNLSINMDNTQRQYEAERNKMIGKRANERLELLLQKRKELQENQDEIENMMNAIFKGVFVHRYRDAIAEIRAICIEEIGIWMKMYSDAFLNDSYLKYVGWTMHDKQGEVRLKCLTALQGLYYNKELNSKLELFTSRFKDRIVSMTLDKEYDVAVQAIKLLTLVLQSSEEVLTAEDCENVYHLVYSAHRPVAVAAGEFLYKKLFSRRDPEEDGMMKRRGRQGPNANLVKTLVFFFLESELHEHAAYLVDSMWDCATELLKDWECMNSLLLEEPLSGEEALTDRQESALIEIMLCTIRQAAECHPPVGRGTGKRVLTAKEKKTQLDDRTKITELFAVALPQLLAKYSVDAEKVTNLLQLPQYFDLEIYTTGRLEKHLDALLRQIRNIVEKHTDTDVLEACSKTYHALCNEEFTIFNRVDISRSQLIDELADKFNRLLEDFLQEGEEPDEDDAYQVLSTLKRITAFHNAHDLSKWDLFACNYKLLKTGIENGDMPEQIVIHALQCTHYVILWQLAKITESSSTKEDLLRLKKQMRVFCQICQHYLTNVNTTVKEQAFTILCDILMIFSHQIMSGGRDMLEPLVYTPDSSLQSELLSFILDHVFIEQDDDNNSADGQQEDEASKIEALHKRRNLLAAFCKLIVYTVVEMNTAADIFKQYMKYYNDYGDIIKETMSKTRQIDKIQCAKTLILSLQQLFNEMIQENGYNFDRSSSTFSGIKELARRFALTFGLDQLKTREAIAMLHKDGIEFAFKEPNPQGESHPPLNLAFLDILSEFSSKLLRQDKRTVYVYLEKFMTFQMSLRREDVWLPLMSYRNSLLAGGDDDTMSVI
Chain of SA2-SCC1 complex (SA2 80-1060 in complex with SCC1 281-420) (O60216 281-420, chain 2 of 2, further chain): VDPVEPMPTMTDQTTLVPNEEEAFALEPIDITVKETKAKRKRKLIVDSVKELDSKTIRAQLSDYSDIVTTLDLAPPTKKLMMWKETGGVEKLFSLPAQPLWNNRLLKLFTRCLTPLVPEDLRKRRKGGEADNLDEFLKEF

## Shugoshin (SGO1) peptide 331-341 (from UniProt Q5FBB7 331-341)
  pKd: 4.87
  dH: -10.7 kcal/mol
